Each block holds one binder with its values, some of them ahead of it.
Experiments:
Assay in all cases: activation reporter or marker
[1] = molecular target: T1, ZNT8 266-285 peptide on HLA-DRB1*04:01 (human)
T1 peptide: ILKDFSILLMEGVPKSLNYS

[2] = molecular target: T2, GAD65 113-132 peptide on HLA-DRB1*04:01 (human)
T2 peptide: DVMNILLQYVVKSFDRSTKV

[3] = molecular target: T3, GAD65 105-124 peptide on HLA-DRB1*04:01 (human)
T3 peptide: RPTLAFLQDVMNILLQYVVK

[4] = molecular target: T4, GAD65 353-372 peptide on HLA-DRB1*04:01 (human)
T4 peptide: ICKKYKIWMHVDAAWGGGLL

[5] = molecular target: IGRP 305-324 peptide on HLA-DRB1*04:01 (human)
[6] = molecular target: T5, ZNT8 1-20 peptide on HLA-DRB1*04:01 (human)
T5 peptide: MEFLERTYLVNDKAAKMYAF

[7] = molecular target: T6, GAD65 553-572 peptide on HLA-DRB1*04:01 (human)
T6 peptide: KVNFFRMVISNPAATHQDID

[8] = molecular target: GAD65 265-284 peptide on HLA-DRB1*04:01 (human)
[9] = molecular target: IGRP 241-260 peptide on HLA-DRB1*04:01 (human)

B1: Clone_295 (TCR)
alpha TRAV5 TRAJ22 CDR3: CAESTSGSARQLTF
beta TRBV30 TRBJ2-1 CDR3: CAWMGGYNEQFF
binding result [1]: recognises

B2: Clone_667 (TCR)
alpha TRAV5 TRAJ7 CDR3: CAERLYGNNRLAF
beta TRBV6-1 TRBJ2-7 CDR3: CASTLLWGGDSYEQYF
binding result [2]: recognises

B3: Clone_640 (TCR)
alpha TRAV41 TRAJ49 CDR3: CAAAGNQFYF
beta TRBV12-4 TRBJ2-1 CDR3: CASSFTYNEQFF
binding result [2]: recognises

B4: Clone_2073 (TCR)
alpha TRAV8-6 TRAJ57 CDR3: CAVKLQGGSEKLVF
beta TRBV2 TRBJ1-5 CDR3: CASKYNRGEQPQHF
binding result [3]: recognises

B5: Clone_2312 (TCR)
alpha TRAV14DV4 TRAJ15 CDR3: CAMREMNQAGTALIF
beta TRBV6-2 TRBJ1-5 CDR3: CASTKGGTHQPQHF
binding result [4]: recognises

B6: Clone_2356 (TCR)
alpha TRAV25 TRAJ36 CDR3: CAGQTGANNLFF
beta TRBV4-3 TRBJ1-5 CDR3: CASSQEVGTVPNQPQHF
binding result [5]: recognises

B7: Clone_904 (TCR)
alpha TRAV9-2 TRAJ52 CDR3: CALSDYSGTSYGKLTF
beta TRBV11-2 TRBJ2-1 CDR3: CASSLIPYNEQFF
binding result [2]: recognises

B8: Clone_839 (TCR)
alpha TRAV17 TRAJ6 CDR3: CATDEGGSYIPTF
beta TRBV11-3 TRBJ2-2 CDR3: CASSFSGELFF
binding result [2]: recognises

B9: Clone_300 (TCR)
alpha TRAV17 TRAJ22 CDR3: CATDSSSGSARQLTF
beta TRBV5-1 TRBJ2-7 CDR3: CASSLVGGRVDWREQYF
binding result [5]: recognises

B10: Clone_1826 (TCR)
alpha TRAV13-2 TRAJ20 CDR3: CAENRSDYKLSF
beta TRBV28 TRBJ2-5 CDR3: CASSSQGQGKETQYF
binding result [6]: recognises

More lines, now with the values ahead:

binding result [2]: recognises
B11: Clone_262 (TCR)
alpha TRAV12-3 TRAJ29 CDR3: CAMEGGRYNTPLVF
beta TRBV5-6 TRBJ1-1 CDR3: CASSVNRGHNTEAFF

binding result [2]: recognises
B12: Clone_271 (TCR)
alpha TRAV20 TRAJ39 CDR3: CAVQAGNAGNMLTF
beta TRBV7-6 TRBJ2-2 CDR3: CASSLGVTGELFF

binding result [5]: recognises
B13: Clone_2353 (TCR)
alpha TRAV26-2 TRAJ48 CDR3: CILRDTISNFGNEKLTF
beta TRBV7-9 TRBJ1-2 CDR3: CASSFGSSYYGYTF

binding result [7]: recognises
B14: Clone_578 (TCR)
alpha TRAV8-3 TRAJ32 CDR3: CAVGAGYGGATNKLIF
beta TRBV12-3 TRBJ2-7 CDR3: CASSFRGGGNPYEQYF

binding result [8]: recognises
B15: Clone_478 (TCR)
alpha TRAV3 TRAJ28 CDR3: CAVRDMRGAGSYQLTF
beta TRBV6-5 TRBJ2-7 CDR3: CASSLGTGTGVYEQYF

binding result [9]: recognises
B16: Clone_855 (TCR)
alpha TRAV8-2 TRAJ27 CDR3: CVVSVGTNAGKSTF
beta TRBV11-3 TRBJ2-2 CDR3: CASSFSGELFF

binding result [6]: recognises
B17: Clone_1662 (TCR)
alpha TRAV13-1 TRAJ41 CDR3: CAASGANSGYALNF
beta TRBV30 TRBJ2-5 CDR3: CAWSAQGETQYF

binding result [5]: recognises
B18: Clone_5 (TCR)
alpha TRAV3 TRAJ13 CDR3: CAVRDSFSGGYQKVTF
beta TRBV12-4 TRBJ2-7 CDR3: CASSPLAGAWSYEQYF

binding result [9]: recognises
B19: Clone_896 (TCR)
alpha TRAV12-2 TRAJ15 CDR3: CAVNPNQAGTALIF
beta TRBV6-6 TRBJ1-5 CDR3: CASAPQEAQPQHF

binding result [2]: recognises
B20: Clone_2062 (TCR)
alpha TRAV20 TRAJ39 CDR3: CAVQAGNAGNMLTF
beta TRBV7-6 TRBJ2-2 CDR3: CASASGVVGELFF
